From patent US20190062705A1 (WAYNE STATE UNIVERSITY, published 2019) come the findings set out here.

The target in test [1] is T1, autoimmune regulator (AIRE), mouse, endogenous in B cells (mouse, UniProt Q9Z0E3 1-552, limits assumed).
T1 construct: Endogenous protein in mouse splenic B cells and CH12 cells
T1 sequence: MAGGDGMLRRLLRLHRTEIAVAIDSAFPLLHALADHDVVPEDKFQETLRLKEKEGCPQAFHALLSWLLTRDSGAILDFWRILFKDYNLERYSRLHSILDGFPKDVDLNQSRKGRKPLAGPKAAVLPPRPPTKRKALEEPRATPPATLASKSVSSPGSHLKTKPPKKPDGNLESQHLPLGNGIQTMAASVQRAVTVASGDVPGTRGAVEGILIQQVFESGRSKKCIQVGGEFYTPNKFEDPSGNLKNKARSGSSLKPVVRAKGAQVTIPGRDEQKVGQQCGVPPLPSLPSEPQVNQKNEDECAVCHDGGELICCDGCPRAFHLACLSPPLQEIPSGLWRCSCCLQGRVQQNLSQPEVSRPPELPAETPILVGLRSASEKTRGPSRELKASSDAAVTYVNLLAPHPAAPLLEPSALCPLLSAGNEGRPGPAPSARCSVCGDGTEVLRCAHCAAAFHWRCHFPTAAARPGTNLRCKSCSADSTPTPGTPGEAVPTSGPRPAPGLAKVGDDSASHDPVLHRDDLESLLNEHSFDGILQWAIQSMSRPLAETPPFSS
The test is described as follows: co-IP, mouse splenic B cell lysates.

Test [2] deals with T2, Bcl10, endogenous in the human Ramos B cell line (human, UniProt O95999 1-233).
T2 sequence (looked up): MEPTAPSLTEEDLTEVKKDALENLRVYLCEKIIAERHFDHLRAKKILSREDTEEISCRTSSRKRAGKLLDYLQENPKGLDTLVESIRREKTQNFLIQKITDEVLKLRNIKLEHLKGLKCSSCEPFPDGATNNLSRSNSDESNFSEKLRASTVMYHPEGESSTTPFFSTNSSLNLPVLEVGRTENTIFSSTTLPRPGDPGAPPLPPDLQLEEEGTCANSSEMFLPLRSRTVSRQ
The test is described as follows: co-IP in Ramos B cells unstimulated or stimulated with TNF for 24 h.

B1: activation-induced cytidine deaminase (AID), mouse, endogenous in B cells (enzyme, UniProt Q9WVE0 1-198, looked up)
chain: MDSLLMKQKKFLYHFKNVRWAKGRHETYLCYVVKRRDSATSCSLDFGHLRNKSGCHVELLFLRYISDWDLDPGRCYRVTWFTSWSPCYDCARHVAEFLRWNPNLSLRIFTARLYFCEDRKAEPEGLRRLHRAGVQIGIMTFKDYFYCWNTFVENRERTFKAWEGLHENSVRLTRQLRRILLPLYEVDDLRDAFRMLGF
notes: Endogenous protein in mouse splenic B cells and CH12 cells
Consider B1, for which the binding result in test [1] is “binds”.

B2: activation-induced cytidine deaminase (AID), human, endogenous in B cells (enzyme)
chain: MDSLLMNRRKFLYQFKNVRWAKGRRETYLCYVVKRRDSATSFSLDFGYLRNKNGCHVELLFLRYISDWDLDPGRCYRVTWFTSWSPCYDCARHVADFLRGNPNLSLRIFTARLYFCEDRKAEPEGLRRLHRAGVQIAIMTFKDYFYCWNTFVENHERTFKAWEGLHENSVRLPRQLRRILLPLYEVDDLRDAFRTWGR
notes: Endogenous protein in lysates of human tonsillar B cells and Ramos B cells
Take B2: in test [2], the binding result is listed as “no binding”.
